Test results from publication PMC5145181, “Structural Mapping and Functional Characterization of Zebrafish Class B G-Protein Coupled Receptor (GPCR) with Dual Ligand Selectivity towards GLP-1 and Glucagon” (PLoS ONE, 2016).

Key:
[1] = molecular target: zebrafish class B G-protein coupled receptor (zfGPCR), dual zfGLP-1R/GCGR (zebrafish (Danio rerio)); assay: radioligand binding
[2] = molecular target: zebrafish class B G-protein coupled receptor (zfGPCR), dual zfGLP-1R/GCGR (zebrafish (Danio rerio)); assay: radioligand binding; competitive displacement of 125I-hGLP-1(7-36)amide (100,000 cpm/well) from recombinant zfGPCR on transiently transfected COS-7 cells in 24-well plates; cold peptide pM to μM in triplicate; 16-18 h at 4°C; IC50 by four-parameter logistic fit (Prism 4)
[3] = molecular target: zebrafish class B G-protein coupled receptor (zfGPCR), dual zfGLP-1R/GCGR (zebrafish (Danio rerio)); assay: radioligand binding; competitive displacement of 125I-exendin(9-39) (100,000 cpm/well) from recombinant zfGPCR on transiently transfected COS-7 cells in 24-well plates; cold peptide pM to μM in triplicate; 16-18 h at 4°C; IC50 by four-parameter logistic fit (Prism 4)

human GLP-1(7-36)amide (hGLP-1), sequence (P01275 98-127): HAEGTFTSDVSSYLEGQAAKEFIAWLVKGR
human glucagon, sequence (P01275 53-81): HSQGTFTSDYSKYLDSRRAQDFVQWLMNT

Row | Substance | IC50 [1] [nM] | IC50 [2] [nM] | IC50 [3] [nM]
1 | zebrafish glucagon (peptide) | 106 | 2.4 | –
2 | zebrafish GLP-1 (zfGLP-1) (peptide) | 290 | 2.1 | –
3 | exendin-4 (from UniProt P26349 48-87) (peptide) | – | 0.48 | 1
4 | human glucagon (from UniProt P01275 53-81) (peptide) | 67 | – | –
5 | human GLP-1(7-36)amide (hGLP-1) (from UniProt P01275 98-127) (peptide) | 178 | 3.6 | –
6 | exendin(9-39) (peptide) | – | 5.8 | 4.21
